Assay results from patent US20210032299A1 (Eli Lilly, published 2021).
Starred links: 1 amine or outer side, 2 acyl side, 3 side chain; linkers in the order of their positions; H or OH if unused. Non-standard residues stand in square brackets, D forms with d. Groups on a side chain read outwards from the residue. No end group written: not given here. *: point of attachment. C20 diacid = O=C(O)CCCCCCCCCCCCCCCCCCC(=O)*; γGlu = O=C(O)[C@H](CCC(=O)[*:2])N[*:1]; 4Pal = N[C@@H](Cc1ccncc1)C(=O)O; αMeL = CC(C)C[C@](C)(N)C(=O)O; Orn = NCCC[C@H](N)C(=O)O; AEEA = NCCOCCOCC(=O)O; Aib = CC(C)(N)C(=O)O

T1: human glucose-dependent insulinotropic polypeptide (GIP) receptor (human, UniProt P48546 22-466)
T1 construct: whole, on cells; Assayed as crude membranes of stably transfected CHO cells; also called hGIPR; human GIP receptor
T1 sequence (looked up): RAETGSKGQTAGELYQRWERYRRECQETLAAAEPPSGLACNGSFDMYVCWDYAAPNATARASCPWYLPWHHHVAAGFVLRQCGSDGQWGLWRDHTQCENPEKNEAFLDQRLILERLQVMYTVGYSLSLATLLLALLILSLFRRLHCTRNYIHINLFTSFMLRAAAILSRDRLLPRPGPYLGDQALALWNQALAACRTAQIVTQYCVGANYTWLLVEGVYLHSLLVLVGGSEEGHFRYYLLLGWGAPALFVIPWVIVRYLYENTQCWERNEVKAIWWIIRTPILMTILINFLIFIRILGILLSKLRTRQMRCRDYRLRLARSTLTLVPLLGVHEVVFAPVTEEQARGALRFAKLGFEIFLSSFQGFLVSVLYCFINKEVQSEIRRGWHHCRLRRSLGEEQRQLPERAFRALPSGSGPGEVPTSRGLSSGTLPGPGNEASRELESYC

B1: Example 81 (peptide)
peptide: Y[Aib]EGTFISDYSI[αMeL]LD[Orn]K([AEEA-AEEA-γGlu-C20 diacid])HQ[Aib]DFVE[4Pal]LLEQGPSSGAPPPS-NH2
modifications: N-terminus assumed
SMILES: CC[C@H](C)[C@H](NC(=O)[C@H](Cc1ccccc1)NC(=O)[C@@H](NC(=O)CNC(=O)[C@H](CCC(=O)O)NC(=O)C(C)(C)NC(=O)[C@@H](N)Cc1ccc(O)cc1)[C@@H](C)O)C(=O)N[C@@H](CO)C(=O)N[C@@H](CC(=O)O)C(=O)N[C@@H](Cc1ccc(O)cc1)C(=O)N[C@@H](CO)C(=O)N[C@H](C(=O)N[C@@](C)(CC(C)C)C(=O)N[C@@H](CC(C)C)C(=O)N[C@@H](CC(=O)O)C(=O)N[C@@H](CCCN)C(=O)N[C@@H](CCCCNC(=O)COCCOCCNC(=O)COCCOCCNC(=O)CC[C@H](NC(=O)CCCCCCCCCCCCCCCCCCC(=O)O)C(=O)O)C(=O)N[C@@H](Cc1c[nH]cn1)C(=O)N[C@@H](CCC(N)=O)C(=O)NC(C)(C)C(=O)N[C@@H](CC(=O)O)C(=O)N[C@@H](Cc1ccccc1)C(=O)N[C@H](C(=O)N[C@@H](CCC(=O)O)C(=O)N[C@@H](Cc1ccncc1)C(=O)N[C@@H](CC(C)C)C(=O)N[C@@H](CC(C)C)C(=O)N[C@@H](CCC(=O)O)C(=O)N[C@@H](CCC(N)=O)C(=O)NCC(=O)N1CCC[C@H]1C(=O)N[C@@H](CO)C(=O)N[C@@H](CO)C(=O)NCC(=O)N[C@@H](C)C(=O)N1CCC[C@H]1C(=O)N1CCC[C@H]1C(=O)N1CCC[C@H]1C(=O)N[C@@H](CO)C(N)=O)C(C)C)[C@@H](C)CC
B2: Example 82 (peptide)
peptide: Y[Aib]EGTFISDYSI[αMeL]LD[Orn]K([AEEA-AEEA-γGlu-C20 diacid])HQ[Aib]DFVE[4Pal]LLEGGPSSGAPPPS-NH2
modifications: N-terminus assumed
SMILES: CC[C@H](C)[C@H](NC(=O)[C@H](Cc1ccccc1)NC(=O)[C@@H](NC(=O)CNC(=O)[C@H](CCC(=O)O)NC(=O)C(C)(C)NC(=O)[C@@H](N)Cc1ccc(O)cc1)[C@@H](C)O)C(=O)N[C@@H](CO)C(=O)N[C@@H](CC(=O)O)C(=O)N[C@@H](Cc1ccc(O)cc1)C(=O)N[C@@H](CO)C(=O)N[C@H](C(=O)N[C@@](C)(CC(C)C)C(=O)N[C@@H](CC(C)C)C(=O)N[C@@H](CC(=O)O)C(=O)N[C@@H](CCCN)C(=O)N[C@@H](CCCCNC(=O)COCCOCCNC(=O)COCCOCCNC(=O)CC[C@H](NC(=O)CCCCCCCCCCCCCCCCCCC(=O)O)C(=O)O)C(=O)N[C@@H](Cc1c[nH]cn1)C(=O)N[C@@H](CCC(N)=O)C(=O)NC(C)(C)C(=O)N[C@@H](CC(=O)O)C(=O)N[C@@H](Cc1ccccc1)C(=O)N[C@H](C(=O)N[C@@H](CCC(=O)O)C(=O)N[C@@H](Cc1ccncc1)C(=O)N[C@@H](CC(C)C)C(=O)N[C@@H](CC(C)C)C(=O)N[C@@H](CCC(=O)O)C(=O)NCC(=O)NCC(=O)N1CCC[C@H]1C(=O)N[C@@H](CO)C(=O)N[C@@H](CO)C(=O)NCC(=O)N[C@@H](C)C(=O)N1CCC[C@H]1C(=O)N1CCC[C@H]1C(=O)N1CCC[C@H]1C(=O)N[C@@H](CO)C(N)=O)C(C)C)[C@@H](C)CC

Legend:
[1] = biological target: T2, human glucagon receptor (human, UniProt P47871 26-477); test: SPA, displacement of [125I]-Gcg from hGcgR membranes, 0.1% bacitracin
T2 construct: whole, on cells; Assayed as crude membranes of stably transfected HEK293 cells; also called hGcgR; GcgR
Procedure, shortened: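 Binding buffer: 25 mM HEPES pH 7.4, 2.5 mM CaCl₂, 1 mM MgCl₂, 0.003% Tween-20, protease inhibitors without EDTA. Counted by scintillation after 12 h incubation/settling at room temperature. Four-parameter nonlinear fit; Kᵢ given as geometric mean ± SEM of independent replicates run on different days.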

[2] = biological target: T3, human GLP-1 receptor (human, UniProt P43220 24-463); test: SPA, displacement of [125I]-GLP-1 from hGLP-1R membranes, 0.1% bacitracin
T3 construct: whole, on cells; Assayed as crude membranes of stably transfected HEK293 cells; also called hGLP1R; hGLP-1R
Procedure, shortened: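 Binding buffer: 25 mM HEPES pH 7.4, 2.5 mM CaCl₂, 1 mM MgCl₂, 0.1% bacitracin, 0.003% Tween-20, protease inhibitors without EDTA. Four-parameter nonlinear regression; Kᵢ given as geometric mean ± SEM, n = independent replicates run on different days.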

[3] = biological target: T1, human glucose-dependent insulinotropic …; test: SPA, displacement of [125I]-GIP from hGIPR membranes, 0.1% bacitracin

T2 sequence (P47871 26-477): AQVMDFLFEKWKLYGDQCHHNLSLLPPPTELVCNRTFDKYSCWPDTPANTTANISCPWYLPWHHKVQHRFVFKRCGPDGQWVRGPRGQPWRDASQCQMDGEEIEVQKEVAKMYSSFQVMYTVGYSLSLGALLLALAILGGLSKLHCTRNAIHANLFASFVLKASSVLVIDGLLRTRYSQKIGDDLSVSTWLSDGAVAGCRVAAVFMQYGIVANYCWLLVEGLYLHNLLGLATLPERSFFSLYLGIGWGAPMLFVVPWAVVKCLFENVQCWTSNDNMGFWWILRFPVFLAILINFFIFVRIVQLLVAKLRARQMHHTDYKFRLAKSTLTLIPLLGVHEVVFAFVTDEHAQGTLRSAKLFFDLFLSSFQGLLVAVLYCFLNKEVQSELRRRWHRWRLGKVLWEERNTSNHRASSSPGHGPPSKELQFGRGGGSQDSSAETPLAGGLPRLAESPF

Binder	Ki [1] [nM]	Ki [2] [nM]	Ki [3] [nM]
B1	699	714	0.0374
B2	305	388	0.0617
